# Test results: article doi:10.1101/580712
# Biological target: human Macrophage Expressed Gene-1 (MPEG-1) soluble ectodomain, wild type (human) (UniProt Q2M385)
# Assay: cryo-EM structure
substance,measurement,value
"human Macrophage Expressed Gene-1 (MPEG-1) soluble ectodomain, wild type (from UniProt Q2M385 17-653) (domain or fragment)",stoichiometry N (subunits per ring),16
